{"source": "paper PMC10958117", "about": "“G-site residue S67 is involved in the fungicide-degrading activity of a tau class glutathione S-transferase from Carica papaya” (The Journal of Biological Chemistry, 2024)", "proteins": {"B1": {"name": "TCpGST (Carica papaya) (protein)", "chain": "MADEVVLLDFWPSPFGMRIRIALAEKGIHYEYKEENLRNKSPLLLQMNPVHKKIPVLIHNGKPICESLIQIQYIDEVWSDKAPLLPSDPYQRAQARFWADYVDKKMYEAGRRVWTTKGEEQEGAKKEFIEILKTLEGELGEKPYFGGESFGYVDLTFIPFYTWFSVYESFGKMSIEAECPKLFSWVKRCLEKESVSKSLPDQDKVYGFVLELRKALGI", "notes": "wild-type full-length ORF, C-terminal His6, pET-30a, E. coli BL21(DE3)"}, "B2": {"name": "tau class glutathione S-transferase from Carica papaya (TCpGST) (Carica papaya) (protein)", "chain": "B1 chain", "notes": "full-length ORF (657 bp), C-terminal His6, pET-30a, E. coli BL21(DE3), Ni-NTA purified"}}, "key": {"[1]": {"substrate": "N[C@@H](CCC(=O)N[C@@H](CS)C(=O)NCC(=O)O)C(=O)O", "experiment": "purified protein, by the assay type", "set-up": "GSH conjugation with chloronitrobenzene substrate, absorbance at 340 nm, Km for glutathione", "conditions": "pH 7.2; 37.0 °C"}, "purified protein": {"substrate": "CN(C)C(=S)SSC(=S)N(C)C", "experiment": "purified protein", "assay_type": "biochemical, Carica papaya", "conditions": "G-site; S67 necessary for activity"}}}
{"protein": "B1", "values": [{"measurement": "Km", "setting": "[1]", "value": "30 ± 8.3", "unit": "µM"}, {"measurement": "Vmax", "setting": "[1]", "value": 552, "unit": "µM/min"}, {"measurement": "kcat", "setting": "[1]", "value": "0.197 ± 0.0169", "unit": "s⁻¹"}, {"measurement": "kcat/Km", "setting": "[1]", "value": 6550, "unit": "M⁻¹ s⁻¹"}]}
{"protein": "B2", "values": [{"measurement": "Km", "setting": "purified protein", "value": "148.4 ± 7", "unit": "µM"}]}
